Results taken from the Immune Epitope Database (IEDB).
pIC50, pKd: −log10 of the molar value. One block for each sequence: values may come before it.

Key:
[1] = target: HLA-A*02:01; assay: IEDB peptide-MHC binding, purified MHC/competitive/fluorescence; ≥ and ≤ were set here for values at or beyond the usual limits of such assays
[2] = target: HLA-A*03:01; assay: as above
[3] = target: HLA-A*11:01; assay: as above
[4] = target: HLA-A*01:01; assay: IEDB peptide-MHC binding, purified MHC/direct/fluorescence; filed as Kd, often an IC50 or EC50 that approximates it; ≥ and ≤ were set here for values at or beyond the usual limits of such assays
[5] = target: HLA-B*46:01; assay: IEDB peptide-MHC binding, purified MHC/competitive/fluorescence; filed as Kd, often an IC50 or EC50 that approximates it; ≥ and ≤ were set here for values at or beyond the usual limits of such assays; settings: source organism: Homo sapiens
[6] = target: HLA-B*57:01; assay: as above
[7] = target: HLA-B*15:01; assay: as above
[8] = target: HLA-B*51:01; assay: as above; settings: source organism: Homo sapiens
[9] = target: HLA-B*27:03; assay: as above; settings: source organism: Homo sapiens
[10] = target: HLA-B*39:01; assay: as above; settings: source organism: Homo sapiens
[11] = target: HLA-A*69:01; assay: as above; settings: source organism: Homo sapiens
[12] = target: HLA-A*24:02; assay: IEDB peptide-MHC binding, purified MHC/competitive/fluorescence; ≥ and ≤ were set here for values at or beyond the usual limits of such assays
[13] = target: HLA-A*02:01; assay: IEDB peptide-MHC binding, purified MHC/competitive/radioactivity; filed as Kd, often an IC50 or EC50 that approximates it; ≥ and ≤ were set here for values at or beyond the usual limits of such assays
[14] = target: HLA-A*02:17; assay: as above
[15] = target: HLA-A*02:06; assay: as above
[16] = target: HLA-A*02:03; assay: as above
[17] = target: HLA-A*68:02; assay: as above; settings: source organism: Dengue virus 4 Philippines/H241/1956
[18] = target: HLA-B*48:01; assay: IEDB peptide-MHC binding, purified MHC/direct/fluorescence; filed as Kd, often an IC50 or EC50 that approximates it; ≥ and ≤ were set here for values at or beyond the usual limits of such assays
[19] = target: HLA-B*18:01; assay: as above
[20] = target: HLA-B*40:01; assay: as above; settings: source organism: Escherichia coli O157:H7
[21] = target: HLA-B*27:05; assay: as above; settings: source organism: Escherichia coli O157:H7
[22] = target: HLA-A*02:01; assay: as above; settings: source organism: Escherichia coli O157:H7
[23] = target: HLA-A*31:01; assay: as above; settings: source organism: Escherichia coli O157:H7
[24] = target: HLA-A*03:01; assay: as above; settings: source organism: Escherichia coli O157:H7
[25] = target: HLA-B*58:01; assay: as above; settings: source organism: Escherichia coli O157:H7
[26] = target: HLA-A*11:01; assay: as above; settings: source organism: Escherichia coli O157:H7
[27] = target: HLA-A*69:01; assay: as above
[28] = target: HLA-B*15:17; assay: IEDB peptide-MHC binding, purified MHC/competitive/fluorescence; filed as Kd, often an IC50 or EC50 that approximates it; ≥ and ≤ were set here for values at or beyond the usual limits of such assays; settings: source organism: Escherichia coli str. K-12 substr. DH10B
[29] = target: HLA-B*57:01; assay: IEDB peptide-MHC binding, purified MHC/competitive/radioactivity; filed as Kd, often an IC50 or EC50 that approximates it; ≥ and ≤ were set here for values at or beyond the usual limits of such assays
[30] = target: HLA-B*53:01; assay: as above; settings: source organism: Dengue virus 1 Brazil/97-11/1997
[31] = target: HLA-A*33:01; assay: as above; settings: source organism: Vaccinia virus WR
[32] = target: HLA-A*31:01; assay: as above; settings: source organism: Vaccinia virus WR
[33] = target: HLA-A*68:01; assay: as above; settings: source organism: Vaccinia virus WR
[34] = target: HLA-B*08:01; assay: as above
[35] = target: HLA-A*32:01; assay: as above
[36] = target: HLA-B*15:01; assay: as above; settings: source organism: Dengue virus 2 Jamaica/1409/1983
[37] = target: HLA-A*30:01; assay: as above; settings: source organism: Dengue virus 3 Martinique/1243/1999
[38] = source organism: Zaire ebolavirus
[39] = source organism: Dengue virus 1 Nauru/West Pac/1974
[40] = source organism: Dengue virus 1 Brazil/97-11/1997
[41] = source organism: Dengue virus 4 Philippines/H241/1956
[42] = source organism: Yellow fever virus
[43] = source organism: Dengue virus 2 Jamaica/1409/1983
[44] = source organism: Vaccinia virus
[45] = source organism: Escherichia coli O157:H7
[46] = source organism: Escherichia coli str. K-12 substr. DH10B
[47] = source organism: Vaccinia virus Copenhagen
[48] = source organism: Sudan ebolavirus
[49] = source organism: Dengue virus 3 Martinique/1243/1999
[50] = source organism: Dengue virus 1 Singapore/S275/1990

Sequence: GIYIEGLMH
pIC50 [1, 38]: ≤ 3.74
pIC50 [2, 38]: 4.79
pIC50 [3, 38]: 5.03

Sequence: HSFEEMYRH
pIC50 [2, 38]: 4.31
pIC50 [3, 38]: 5.48

pKd ([4]; source organism: Homo sapiens): 8.44
pKd [5]: ≤ 4.70
pKd ([6]; source organism: Homo sapiens): ≤ 4.70
pKd ([7]; source organism: Homo sapiens): ≤ 4.70
pKd [8]: ≤ 4.70
pKd [9]: ≤ 4.70
pKd [10]: ≤ 4.70
pKd [11]: ≤ 4.70
Sequence: NTAINFFLY

Sequence: DQEKKILMN
pIC50 [12, 38]: ≤ 3.52
pIC50 [2, 38]: ≤ 3.41
pIC50 [3, 38]: ≤ 3.71

Sequence: SLLFKTSAGV
pKd [13, 39]: 7.67
pKd [14, 39]: 6.09
pKd [15, 40]: 7.45
pKd [16, 40]: 6.54

Sequence: TIMAVLFVV
pKd [13, 41]: 7.03
pKd [14, 41]: 6.10
pKd [15, 41]: 6.90
pKd [16, 41]: 7.33
pKd [17]: 7.36

Sequence: GKRSNTTGK
pIC50 [1, 38]: ≤ 1.85
pIC50 [2, 38]: 4.28

Sequence: GLLCLTLFV
pKd [13, 41]: 8.61
pKd [14, 41]: 8.07
pKd [15, 41]: 7.79

Sequence: YRNALSMMP
pKd [18, 42]: ≤ 4.70

Sequence: FLNEDHWFS
pKd [13, 43]: 8.40
pKd [14, 43]: 6.73

Sequence: STHKLSLTK
pIC50 ([1]; source organism: Variola virus): ≤ 3.59
pIC50 ([2]; source organism: Variola virus): 5.53
pIC50 ([3]; source organism: Variola virus): 6.72

Sequence: LRYLLFGIK
pIC50 [12, 44]: 4.87
pIC50 [1, 44]: ≤ 3.08
pIC50 [2, 44]: 4.81
pIC50 [3, 44]: ≤ 3.89

Sequence: GQPIPIAGL
pKd ([18]; source organism: Mycobacterium tuberculosis C): 6.52

Sequence: IKGTSGTEK
pIC50 [2, 44]: ≤ 3.73

Sequence: SESLPIWGI
pKd ([19]; source organism: Cryptosporidium parvum Iowa II): 4.86

pKd [20]: ≤ 4.70
pKd [21]: ≤ 4.70
pKd [22]: ≤ 4.70
pKd [23]: ≤ 4.70
pKd [24]: ≤ 4.70
pKd [25]: ≤ 4.70
pKd [26]: ≤ 4.70
pKd [4, 45]: 4.73
pKd [27, 45]: ≤ 4.70
pKd [18, 45]: ≤ 4.70
pKd [28]: ≤ 4.70
pKd [6, 46]: 6.10
pKd [7, 46]: 6.61
Sequence: VSRDFDDVY

Sequence: RRYGGGLVR
pKd ([18]; source organism: West Nile virus): ≤ 4.70

Sequence: IMAVGLVSL
pKd ([27]; source organism: dengue virus type 4): ≤ 4.70
pKd [14, 41]: 6.10
pKd [16, 41]: 9.80

Sequence: IGIGILLTW
pKd [29, 40]: 6.57
pKd [30]: 5.26

Sequence: KSISKSNAK
pIC50 [2, 47]: 5.52
pIC50 [3, 47]: 5.77
pKd [31]: ≤ 4.47
pKd [32]: 9.34
pKd [33]: 7.00

Sequence: ILLTAVAPSM
pKd [13, 43]: 5.60
pKd [14, 43]: 5.22
pKd [34, 43]: 5.06

Sequence: VQGFIFFFL
pKd [19, 42]: ≤ 5.30

Sequence: RISDRATRK
pIC50 [2, 48]: 5.73
pIC50 [3, 48]: 6.19

Sequence: FLAHYIGTSL
pKd ([14]; source organism: Dengue virus 3 China/80-2/1980): 7.65
pKd [16, 49]: 8.48

Sequence: GLLFMILTV
pKd [13, 50]: 7.37
pKd [14, 50]: 4.84
pKd [35, 40]: ≤ 4.11

Sequence: ITGGRRTRR
pIC50 [1, 38]: ≤ 3.75
pIC50 [2, 38]: 5.16
pIC50 [3, 38]: 5.04

Sequence: YQLAVTIMAI
pKd [36]: 7.80
pKd [13, 43]: 7.49
pKd [14, 43]: 5.11
pKd [15, 43]: 7.95
pKd [16, 43]: 7.95

Sequence: AVASGLLWV
pKd [13, 41]: 7.72
pKd [14, 41]: 5.48
pKd [15, 41]: 7.93
pKd [16, 41]: 8.72

Sequence: IMAVGMVSI
pKd [14, 43]: 6.11
pKd [35, 43]: 7.69
pKd [16, 43]: 8.08

Sequence: GLNTFTNMEV
pKd [13, 41]: 8.42
pKd [14, 41]: 6.38
pKd [16, 40]: 7.82

Sequence: TMKEKSWLV
pKd [13, 50]: 7.26
pKd [14, 50]: 7.39
pKd [16, 40]: 7.02

Sequence: FLDLPLPWL
pKd [13, 43]: 7.99
pKd [14, 43]: 8.02
pKd [15, 43]: 6.90

Sequence: LTSRDGEPRM
pKd [37]: 4.96
pKd [29, 49]: 5.88

Sequence: ASLTPKAQR
pIC50 ([2]; source organism: Variola virus): 5.63
pIC50 ([3]; source organism: Variola virus): 6.54

Sequence: LMLLALIAVL
pKd [13, 50]: 7.02
pKd [14, 50]: 5.66
pKd [34, 40]: 5.65

Sequence: KLARASFIEV
pKd [13, 50]: 7.83
pKd [14, 50]: 6.15
pKd [15, 40]: 7.66
pKd [16, 40]: 7.70
